Article PMC6282176

Target: C-terminally truncated fragment of DdSkp1 (residues 1–122) (Dictyostelium discoideum) (UniProt P52285)
Assay: AUC

stoichiometry N: 2
Substance: C-terminally truncated fragment of DdSkp1 (residues 1–122) (from UniProt P52285 1-122) (domain or fragment)
